Key:
[1] = target: catalase KatA of H. pylori CCUG18943, endogenous (Helicobacter pylori (endogenous in strain CCUG18943)) (UniProt P77872); assay: flow cytometry on cells; whole H. pylori (wt and ΔkatA) incubated with 3 μg human serum Vn per 10^6 cells, 1 h, 37 °C, PBS 1% BSA; sheep anti-human Vn Ab and FITC-conjugated anti-sheep pAb
[2] = target: catalase KatA of H. pylori KR497, endogenous (Helicobacter pylori (endogenous in strain KR497)) (UniProt P77872); assay: as above
[3] = target: catalase KatA of H. pylori KR697, endogenous (Helicobacter pylori (endogenous in strain KR697)) (UniProt P77872); assay: as above
Vn^80–396 (human) = assay: BLI; Octet RED96; Vn 80–396 immobilised on AR2G sensors by amine coupling at pH 5; KatA as analyte, 1 in 3 dilution series (50–0.055 nM) in PBS, 0.05% Tween20; KD from steady state analysis

Substance	reduction of Vn binding to whole bacteria on deletion of katA [1] [%]	reduction of Vn binding to whole bacteria on deletion of katA [2] [%]	reduction of Vn binding to whole bacteria on deletion of katA [3] [%]	Kd (Vn^80–396 (human)) [nM]	koff (Vn^80–396 (human)) [s⁻¹]	kon (Vn^80–396 (human)) [M⁻¹ s⁻¹]
human serum vitronectin (Vn), activated, purified from serum (natural protein)	21	50	50	–	–	–
full length recombinant KatA (from UniProt P77872 1-505)	–	–	–	1	0.0003	1e+06

— paper PMC4834553
